# ± gives the uncertainty stated by the source.
# Assay: self-splicing fitness, log relative to wild type (ln ratio); higher = more splicing; Tetrahymena group I intron in knt gene, E. coli kanamycin selection, DiMSum; sequences stand for … in CUCUCU…GGAGGGAAAAGUUAUCAGGCAUGCACCUGGUAGCUAGUCUUUAAACCAAUAGAUUGCAUCGGUUUAAAAGGCAAGACCGUCAAAUUGCGGGAAAGGGGUCAACAGCCGUUCAGUACCAAGUCUCAGGGGAAACUUUGAGAUGGCCUUGCAAAGGGUAUGGUAAUAAGCUGACGGACAUGGUCCUAACCACGCAGCCAAGUCCUAAGUCAACAGAUCUUCUGUUGAUAUGGAUGCAGUUCACAGACUAAAUGUCGGUCGGGGAAGAUGUAUUCUUCUCAUAAGAUAUAGUCGGACCUCUCCUUAAUGGGAGCUAGCGGAUGAAGUGAUGCAACACUGGAGCCGCUGGGAACUAAUUUGUAUGCGAAAGUAUAUUGAUUAGUUUUGGAGUACUCGUGGUCG
# How it was run: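 Library with all eight P1ex-region intron nucleotides randomised, intron inside the knt kanamycin-resistance gene on pET-22b(+), in E. coli BL21(DE3). Cells grew overnight at 37°C or 30°C on LB agar with or without 25 μg/mL kanamycin (plus 100 μg/mL carbenicillin, 50 μM IPTG, 0.2% rhamnose), in six replicate transformations. Pooled colonies were amplicon-sequenced on Illumina HiSeq 2500. DiMSum fitness is the error-weighted combination of wild-type-normalised replicate fold changes, kanamycin versus none.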
Sequence,self-splicing fitness (ln) (37 °C),self-splicing fitness (ln) (30 °C)
GAGGAGCAAUAUUACGCCAC,-2.39 ± 0.37,
GAGGAGCAAUAUUACGCCUC,-2.29 ± 0.42,
GAGGAGCAAUAUUACGCCUG,-1.3 ± 0.44,-2.07 ± 0.41
GAGGAGCAAUAUUACGCGAA,-2.05 ± 0.3,-2.67 ± 0.35
GAGGAGCAAUAUUACGCUUU,-2.06 ± 0.41,
GAGGAGCAAUAUUACGGACA,-1.96 ± 0.3,-3.15 ± 0.33
GAGGAGCAAUAUUACGGGCG,-1.56 ± 0.24,-2.68 ± 0.32
GAGGAGCAAUAUUACGGUCA,-2.19 ± 0.21,-2.76 ± 0.21
GAGGAGCAAUAUUACGGUGG,,-2.76 ± 0.2
GAGGAGCAAUAUUACGGUGU,-1.59 ± 0.21,-3.56 ± 0.27
GAGGAGCAAUAUUACGGUUC,-3.2 ± 0.35,
GAGGAGCAAUAUUACGUCGU,-2.14 ± 0.34,-0.318 ± 0.28
GAGGAGCAAUAUUACGUGAG,-2.22 ± 0.26,-3.37 ± 0.4
GAGUAGCAAUAUUACGACGA,-0.664 ± 0.12,-0.0886 ± 0.15
GAGUAGCAAUAUUACGCAGG,-3.26 ± 0.24,-3.04 ± 0.22
GAGUAGCAAUAUUACGCAUU,-2.07 ± 0.12,-3.07 ± 0.13
GAGUAGCAAUAUUACGCCUU,-0.976 ± 0.24,-3.2 ± 0.23
GAGUAGCAAUAUUACGCGUG,-0.531 ± 0.089,-2.16 ± 0.08
GAGUAGCAAUAUUACGCUAU,,-3.73 ± 0.27
GAGUAGCAAUAUUACGGACA,-0.816 ± 0.082,-1.44 ± 0.087
GAGUAGCAAUAUUACGGACG,-0.531 ± 0.2,-3.14 ± 0.28
GAGUAGCAAUAUUACGGCAC,-0.256 ± 0.21,-0.661 ± 0.2
GAGUAGCAAUAUUACGGGCU,-1.94 ± 0.16,-1.43 ± 0.17

Sequence,self-splicing fitness (ln) (37 °C),self-splicing fitness (ln) (30 °C)
GAGUAGCAAUAUUACGGUUC,-2.36 ± 0.3,-1.02 ± 0.12
GAGUAGCAAUAUUACGUAGC,,-2.44 ± 0.34
GAGUAGCAAUAUUACGUAUU,-1.79 ± 0.11,-3.24 ± 0.16
GAGUAGCAAUAUUACGUGAA,-1.95 ± 0.15,-2.5 ± 0.16
GAGUAGCAAUAUUACGUGAG,-1.28 ± 0.12,-2.5 ± 0.081
GAGUAGCAAUAUUACGUGGA,-2.52 ± 0.17,-3.37 ± 0.28
GAGUAGCAAUAUUACGUGUC,-1.53 ± 0.26,-1.73 ± 0.16
GAGUAGCAAUAUUACGUGUU,-1.12 ± 0.1,-3.05 ± 0.12
GAGUAGCAAUAUUACGUUAU,-2.12 ± 0.21,-2.9 ± 0.23
GAGUAGCAAUAUUACGUUCC,,-1.88 ± 0.46
GAGUAGCAAUAUUACGUUCU,-2.56 ± 0.21,-2.18 ± 0.18
GAGUAGCAAUAUUACGUUUA,-1.63 ± 0.19,-3.09 ± 0.25
GAUAAGCAAUAUUACGAAAC,-0.746 ± 0.19,-2.38 ± 0.2
GAUAAGCAAUAUUACGAAAG,-1.66 ± 0.21,-2.76 ± 0.18
GAUAAGCAAUAUUACGAACA,-0.468 ± 0.097,-1.02 ± 0.092
GAUAAGCAAUAUUACGACAA,-0.276 ± 0.14,-1.46 ± 0.11
GAUAAGCAAUAUUACGACGG,-2.34 ± 0.27,-2.96 ± 0.17
GAUAAGCAAUAUUACGAGAA,-1.38 ± 0.38,
GAUAAGCAAUAUUACGAUAA,0.344 ± 0.13,-1.46 ± 0.13
GAUAAGCAAUAUUACGAUCA,-0.134 ± 0.1,-1.33 ± 0.1
GAUAAGCAAUAUUACGCGCA,0.383 ± 0.13,-0.808 ± 0.085
GAUAAGCAAUAUUACGCUUG,-0.952 ± 0.1,-2.05 ± 0.1
